Patent US20260242478A1 (published 2026)
Where no end group is shown, it is not given here.

Tests used:
[1] = molecular target: T1, PSMA Fab (SEQ ID NOs: 19, 20); test: clonal phage ELISA; captured biotinylated PSMA Fab pre-incubated with PSMA antigen as competitor, anti-M13-HRP detection
T1 construct: also called Anti-PSMA Fab; 006 PSMA Fab
Protocol: (§1) Clonal phage were harvested as crude supernatants and screened via standard ELISAs. […] Prior to the addition of clonal phage. wells were incubated with blocking buffer and PSMA antigen or blocking buffer alone. Without washing or aspirating, clonal phage supernatants were then added to the wells and incubated for a short time. Wells were then washed followed by detection of bound phage using a horse radish conjugated anti-M13 antibody.

[2] = molecular target: T1, PSMA Fab (SEQ ID NOs: 19, 20); test: clonal phage ELISA; biotinylated PSMA Fab captured on neutravidin plate, bound phage detected with anti-M13-HRP
Protocol: as §1

PSMA Fab (006 PSMA Fab) [3] = molecular target: T2, PSMA Fab (006 PSMA Fab); test: clonal phage ELISA on captured PSMA Fab pre-incubated with PSMA antigen as competitor, anti-M13-HRP detection;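 note: wells blocked with buffer plus PSMA antigen before phage addition, with blocking buffer alone as the no-competitor control, bound phage detected after washing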
T2 construct: also called Anti-PSMA Fab
Protocol: as §1

PSMA Fab (006 PSMA Fab) [4] = molecular target: T2, PSMA Fab (006 PSMA Fab); test: clonal phage ELISA on biotinylated PSMA Fab captured on neutravidin plates, anti-M13-HRP detection;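 note: crude clonal phage supernatants added to wells preincubated with PSMA antigen or with blocking buffer only (no wash between), briefly incubated, then washed before detecting bound phage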
Protocol: as §1

PSMA Fab (006 PSMA Fab) [5] = molecular target: T3, PSMA Fab (006 PSMA Fab) (biotinylated (site not stated)); test: clonal phage ELISA on plate-captured biotinylated PSMA Fab, blocking buffer alone, anti-M13 HRP detection
T3 construct: also called Anti-PSMA Fab

PSMA Fab (006 PSMA Fab) [6] = molecular target: T3, PSMA Fab (006 PSMA Fab); test: clonal phage ELISA on plate-captured biotinylated PSMA Fab pre-incubated with PSMA antigen as competitor, anti-M13 HRP detection
Protocol: as §1

PSMA Fab [7] = molecular target: T4, PSMA Fab (biotinylated (site not stated)); test: phage ELISA; biotinylated PSMA Fab on neutravidin plate pre-incubated with PSMA antigen as competitor, anti-M13 HRP detection;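 note: crude clonal phage supernatants tested, compared against control wells pre-incubated with blocking buffer only, without PSMA antigen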
T4 construct: Biotinylated PSMA Fab captured on neutravidin coated plates in the phage ELISA; also called Anti-PSMA Fab; 006 PSMA Fab

PSMA Fab [8] = molecular target: T4, PSMA Fab; test: phage ELISA; biotinylated PSMA Fab on neutravidin plate, clonal phage supernatant, anti-M13 HRP detection;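 note: wells preincubated with PSMA antigen in blocking buffer or with blocking buffer only before clonal phage were added for a short incubation, then bound phage detected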
Protocol: as §1

Row | Binder | Phage binding ELISA signal, Anti-PSMA Fab with PSMA antigen (PSMA Fab (006 PSMA Fab) [3]) | Phage binding ELISA signal, Anti-PSMA Fab (PSMA Fab (006 PSMA Fab) [4]) | Phage binding ELISA signal, Anti-PSMA Fab (PSMA Fab (006 PSMA Fab) [5]) | Phage binding ELISA signal, Anti-PSMA Fab in presence of PSMA (PSMA Fab (006 PSMA Fab) [6]) | further results
1 | AYPMCSPAWMCAGF (cysteine pairing not given here; also: displayed on phage as fusion to pIII, junction not given here, Tested as clonal phage supernatant; not shown: pIII coat protein of the bacteriophage to which the peptide is fused) [Phage-3812 (Peptide-180 library clone, SEQ ID NO: 4128)] | – | – | – | – | Phage binding ELISA signal, Anti-PSMA Fab with PSMA antigen [1]: 0.0779; Phage binding ELISA signal, Anti-PSMA Fab [2]: 1.29
2 | YTAMCVPVWMCNVL (cysteine pairing not given here; also: displayed on phage as fusion to pIII, junction not given here, Tested as clonal phage supernatant; not shown: pIII coat protein of the bacteriophage to which the peptide is fused) [Phage-3813 (Peptide-180 library clone, SEQ ID NO: 4129)] | – | – | – | – | Phage binding ELISA signal, Anti-PSMA Fab with PSMA antigen [1]: 0.0695; Phage binding ELISA signal, Anti-PSMA Fab [2]: 1.29
3 | EFKWCVPDWMCYGV (cysteine pairing not given here; also: displayed on phage as fusion to pIII, junction not given here) [Phage-3814] | 0.0589 | 1.29 | – | – | –
4 | ASISCIPDWMCHGF [Phage-3815] | 0.0872 | 1.28 | – | – | –
5 | LDLSCVPAWMCTGF [Phage-3816] | 0.0963 | 1.28 | – | – | –
6 | ATVVCSPPWMCTGF [Phage-3817] | 0.0662 | 1.27 | – | – | –
7 | ENAKCSPAWMCVGF [Phage-3818] | 0.0752 | 1.27 | – | – | –
8 | VHIMCVPPWMCERF [Phage-3819] | 0.0664 | 1.27 | – | – | –
9 | LLERCVPSWMCLGF [Phage-3820] | 0.102 | 1.26 | – | – | –
10 | PQIWCVPTWMCAAS (cysteine pairing not given here; also: displayed on phage as fusion to pIII, junction not given here) [Phage-3821] | 0.0743 | 1.26 | – | – | –
11 | QEPVCRPAWMCSGF [Phage-3822] | 0.0764 | 1.26 | – | – | –
12 | QVKYCEPQWMCAGL (cysteine pairing not given here; also: displayed on phage as fusion to pIII, junction not given here) [Phage-3823] | 0.0788 | 1.25 | – | – | –
13 | EAPYCRPSWMCAGF (cysteine pairing not given here; also: displayed on phage as fusion to pIII, junction not given here) [Phage-3824] | 0.0837 | 1.25 | – | – | –
14 | PGMVCKPSWMCSHL [Phage-3825] | 0.107 | 1.25 | – | – | –
15 | VQHWCVPAWMCYGL [Phage-3826] | 0.107 | 1.24 | – | – | –
16 | VDRMCVPPWMCDVL [Phage-3827] | 0.0859 | 1.24 | – | – | –
17 | IDRHCIPAWMCEQF [Phage-3828] | – | – | 1.24 | 0.0571 | –
18 | PEIRCAPLWMCVGF [Phage-3829] | – | – | 1.24 | 0.0725 | –
19 | PPRACVPSWMCTGF [Phage-3830] | – | – | 1.24 | 0.0854 | –
20 | GMKTCVPAWMCVGF [Phage-3831] | – | – | 1.24 | 0.08 | –

Row | Binder | Phage binding ELISA signal, Anti-PSMA Fab with PSMA antigen (PSMA Fab (006 PSMA Fab) [3]) | Phage binding ELISA signal, Anti-PSMA Fab (PSMA Fab (006 PSMA Fab) [4]) | Phage binding ELISA signal, Anti-PSMA Fab (PSMA Fab (006 PSMA Fab) [5]) | Phage binding ELISA signal, Anti-PSMA Fab in presence of PSMA (PSMA Fab (006 PSMA Fab) [6]) | further results
21 | TSVLCQPLWMCSGF [Phage-3832] | – | – | 1.24 | 0.0785 | –
22 | VGIRCEPAWMCEGF [Phage-3833] | – | – | 1.24 | 0.0645 | –
23 | VDRVCIPTWMCEGI [Phage-3834] | – | – | 1.23 | 0.0575 | –
24 | FWQRCVPTWMCEGF [Phage-3835] | – | – | 1.23 | 0.148 | –
25 | VLHKCLPTWMCNGF [Phage-3836] | – | – | 1.23 | 0.0967 | –
26 | DPVWCIPQWMCEGF [Phage-3837] | – | – | 1.23 | 0.0652 | –
27 | SDYMCRPSWMCEGL [Phage-3838] | – | – | 1.23 | 0.0632 | –
28 | NYNACVPIWMCEGF [Phage-3839] | – | – | 1.22 | 0.104 | –
29 | PYSICKPDWMCTGL [Phage-3840] | – | – | 1.22 | 0.0653 | –
30 | SEMRCSPPWMCYGF [Phage-3841] | – | – | 1.22 | 0.0822 | –
31 | LYEMCKPLWMCAGF [Phage-3842] | – | – | – | – | Phage binding ELISA signal, Anti-PSMA Fab in presence of PSMA (PSMA Fab [7]): 0.0737; Phage binding ELISA signal, Anti-PSMA Fab (PSMA Fab [8]): 1.22
32 | PFLACIPQWMCEVV [Phage-3843] | – | – | – | – | Phage binding ELISA signal, Anti-PSMA Fab in presence of PSMA (PSMA Fab [7]): 0.247; Phage binding ELISA signal, Anti-PSMA Fab (PSMA Fab [8]): 1.22
33 | SDMVCKPPWMCYGF [Phage-3844] | – | – | – | – | Phage binding ELISA signal, Anti-PSMA Fab in presence of PSMA (PSMA Fab [7]): 0.0897; Phage binding ELISA signal, Anti-PSMA Fab (PSMA Fab [8]): 1.22
34 | SGLSCVPFWMCTGF [Phage-3845] | – | – | – | – | Phage binding ELISA signal, Anti-PSMA Fab in presence of PSMA (PSMA Fab [7]): 0.0662; Phage binding ELISA signal, Anti-PSMA Fab (PSMA Fab [8]): 1.21
35 | YNQLCIPNWMCTGF [Phage-3846] | – | – | – | – | Phage binding ELISA signal, Anti-PSMA Fab in presence of PSMA (PSMA Fab [7]): 0.0729; Phage binding ELISA signal, Anti-PSMA Fab (PSMA Fab [8]): 1.21
36 | ELRLCVPHWMCDGF [Phage-3847] | – | – | – | – | Phage binding ELISA signal, Anti-PSMA Fab in presence of PSMA (PSMA Fab [7]): 0.0777; Phage binding ELISA signal, Anti-PSMA Fab (PSMA Fab [8]): 1.21
37 | VPRLCMPPWMCVGF [Phage-3848] | – | – | – | – | Phage binding ELISA signal, Anti-PSMA Fab in presence of PSMA (PSMA Fab [7]): 0.0968; Phage binding ELISA signal, Anti-PSMA Fab (PSMA Fab [8]): 1.21
38 | WDIRCSPEWMCIGL [Phage-3849] | – | – | – | – | Phage binding ELISA signal, Anti-PSMA Fab in presence of PSMA (PSMA Fab [7]): 0.0603; Phage binding ELISA signal, Anti-PSMA Fab (PSMA Fab [8]): 1.21
39 | EPKECVPPWMCIGM [Phage-3850] | – | – | – | – | Phage binding ELISA signal, Anti-PSMA Fab in presence of PSMA (PSMA Fab [7]): 0.079; Phage binding ELISA signal, Anti-PSMA Fab (PSMA Fab [8]): 1.21
40 | WQAWCEPPWMCLGF [Phage-3851] | – | – | – | – | Phage binding ELISA signal, Anti-PSMA Fab in presence of PSMA (PSMA Fab [7]): 0.0962; Phage binding ELISA signal, Anti-PSMA Fab (PSMA Fab [8]): 1.2
